The target in this test is Sso7d(W24A/R43E)-HTLV-1 IN(E156Q) (HTLV-1). Briefly: cryo-EM structure; SEC-purified HTLV-1 intasome (strand-transfer complex) of Sso7d-IN(E156Q), B56γ(11–380) and branched viral U5 LTR/target DNA; 3.7 Å, C2 symmetry imposed.

By stoichiometry N is commonly meant the number of molecules, sites or subunits per partner or assembly. On to “Sso7d(W24A/R43E)-HTLV-1 IN(E156Q) (enzyme)”, for which the stoichiometry N was found to be 4.
